Test [1] has as its target T1, purified recombinant VAP-1 (Homo sapiens, UniProt Q16853).
T1 sequence (Q16853 1-763): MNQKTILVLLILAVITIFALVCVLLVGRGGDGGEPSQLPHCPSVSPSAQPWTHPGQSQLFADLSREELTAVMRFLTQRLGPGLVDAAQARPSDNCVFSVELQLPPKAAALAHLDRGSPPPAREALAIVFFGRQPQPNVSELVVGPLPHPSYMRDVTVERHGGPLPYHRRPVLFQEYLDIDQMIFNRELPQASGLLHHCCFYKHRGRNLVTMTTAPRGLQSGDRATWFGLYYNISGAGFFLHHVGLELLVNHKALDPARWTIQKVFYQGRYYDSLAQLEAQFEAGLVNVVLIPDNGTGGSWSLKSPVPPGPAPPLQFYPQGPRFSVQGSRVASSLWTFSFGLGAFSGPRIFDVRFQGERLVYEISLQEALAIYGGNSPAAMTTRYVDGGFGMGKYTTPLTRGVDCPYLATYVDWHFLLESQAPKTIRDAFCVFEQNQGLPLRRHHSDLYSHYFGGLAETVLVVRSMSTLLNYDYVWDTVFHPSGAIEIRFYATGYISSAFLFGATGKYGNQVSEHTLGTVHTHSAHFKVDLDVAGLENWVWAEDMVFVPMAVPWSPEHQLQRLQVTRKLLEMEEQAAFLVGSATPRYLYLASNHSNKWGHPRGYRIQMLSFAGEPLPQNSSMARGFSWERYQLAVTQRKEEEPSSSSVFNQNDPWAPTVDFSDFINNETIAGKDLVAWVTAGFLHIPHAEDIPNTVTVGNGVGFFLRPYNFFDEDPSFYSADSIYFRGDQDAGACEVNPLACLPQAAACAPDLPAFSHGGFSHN
The test is described as follows: ELISA binding of biotinylated synthetic peptides to immobilized VAP-1. To be noted: wells coated with VAP-1, BSA as negative control; streptavidin-HRP chemiluminescence detection. As to the method:
Binding of peptides to VAP-1. VAP-1 and BSA as a negative control were immobilized in wells of Nunc Maxisorp 96-well ELISA plate overnight at 4° C., blocked with PBS/3% BSA for 1 h at 37° C. and incubated with biotinylated peptides (10 micrograms/ml or 100 micrograms/ml) for 2 h at room temperature. The wells were washed with PBS/0.1% Tween, incubated with HRP conjugated streptavidin for 1 h at room temperature and after washing a BM chemiluminescence ELISA substrate was added. Luminescence was measured with a luminometer (Tecan Ultra, Tecan, Zürich, Switzerland).
Background: In an ELISA, binding on a coated surface is turned into a signal by an enzyme label.

For test [2], the target named is T2, recombinant VAP-1 (Homo sapiens, UniProt Q16853).
T2 sequence (Q16853 1-763): T1 sequence (Q16853 1-763)
The test can be described thus: ELISA binding of Siglec-10-Ig-chimera to recombinant VAP-1. To be noted: chimera immobilized via anti-human IgG; VAP-1 detected with biotinylated TK-8-18. As to the method: Siglec 10-Fc chimera binding to VAP-1. Anti-human IgG (Fc specific) antibody was coated onto Nunc Maxisorp wells overnight at 4° C. After blocking with PBS/2% BSA, Siglec-10-Ig-chimera (1 microgram/ml) was immobilized to wells via its Fc-tail for 2 h at room temperature and thereafter, recombinant VAP-1 ([…] incubated in wells for 2 h at room temperature. After washing the wells with PBS/0.1% Tween, biotinylated anti-human VAP-1 antibody (TK-8-18) was incubated in the wells for 1 h at room temperature and after that, the wells were incubated with HRP conjugated streptavidin for 1 h at room temperature. After washing the wells, a BM chemiluminescence ELISA substrate was added to the wells and luminescence was measured with Tecan luminometer.

Test [3] has as its target T3, VAP-1 (SSAO enzymatic activity) (Homo sapiens, UniProt Q16853).
T3 construct: expressed in transfected cells; host or cells: CHO cells (CHO-VAP-1)
T3 sequence (Q16853 1-763): T1 sequence (Q16853 1-763)
The test is described as follows: Isotopic enzyme assay of SSAO activity of VAP-1 (14C-benzylamine, CHO-VAP-1 cell lysate). The class given is biochemical. To be noted: 30 min preincubation with CHO-VAP-1 lysate. As to the method: Semicarbazide sensitive mine oxidase (SSAO) enzymatic activity of VAP-1 after interaction with Siglec-10 was determined radiochemically. Briefly, 14-C labeled benzylamine (a model substrate for SSAO) was used as the substrate. The assay was performed at 37° C. for 120 minutes in a final volume of 400 microliters 0.1 mM Krebs-Ringer phosphate glucose buffer (pH 7.35) containing CHO-VAP-1 cell lysate and 5 microM benzylamine with tracer ^14C benzylamine (40 000 dpm) in the presence of 1 mM clorgyline (a MAO inhibitor). In the inhibitory studies, the lysate was preincubated 30 minutes with 10 micrograms/ml or 70 micrograms/ml Siglec-10-Ig-chimera or 1 mM semicarbazide before adding the benzylamine. Catalytic reaction was stopped with citric acid, and the aldehyde reaction products were extracted from the analyzed mixture into toluene containing 0.35 g/L diphenyloxazole. The amount of 14C-labeled benzaldehyde was quantified by scintillation counting using a beta-counter Wallac-1409 (Turku, Finland), and the activity of the enzyme was expressed as picomoles of benzaldehyde formed by milliliter of lysate per hour.

Test [4] has as its target T4, VAP-1 expressed on the cell surface (CHO-VAP-1 cells) (Homo sapiens, UniProt Q16853).
T4 construct: expressed in transfected cells; host or cells: CHO cells (CHO-VAP-1)
T4 sequence (Q16853 1-763): T1 sequence (Q16853 1-763)
The test is described as follows: Epitope analysis: competitive surface staining of CHO-VAP-1 cells with anti-VAP-1 mAb, flow cytometry. To be noted: cells expressing VAP-1 first incubated with 10 micrograms/ml protein, then anti-VAP-1 (JG2.10). It is filed as cell-based. As to the method: Surface stainings of CHO-VAP-1 and CHO-mock cells were performed using anti-VAP-1 (JG2.10) and a negative control (9B5) mAbs. Competitive stainings were done in the presence of 10 micrograms/ml either human Ig or Siglec-10-Ig. Alexa546-conjugated goat anti-rat IgG was used as the secondary reagent. All cells were analyzed using FACSCalibur and Cellquest software.
Background: In flow cytometry, cells or beads pass a laser one at a time.

“Also recorded” adds a separate entry of the source.

For the substance “CARLSLSWRGLTLCPS (listed as Homo sapiens) [P5]”, in test [1], the “Binding of biotinylated synthetic peptide to VAP-1 (ELISA)” value (“Binding” for short) was “bound specifically to wells coated with purified VAP-1 in comparison to BSA”.

On to “CATLSWVLQNRVLSSC (listed as Homo sapiens) [P3, longer peptide matching Siglec-10 residues 284-297, cysteines added to both ends]”, for which the “Binding” value in test [1] is recorded as “bound specifically to wells coated with purified VAP-1 in comparison to BSA”.

“CVKWRGVVVC (Phage display library peptide) [peptide P1]”: the “Binding” value in test [1] is on record as “shown to bind to VAP-1; also recorded: efficiently bound to purified recombinant VAP-1”.

As for “CWSFRNRVLC (Phage display library peptide) [peptide P2]”, in test [1], the “Binding” value is recorded as “shown to bind to VAP-1; also recorded: efficiently bound to purified recombinant VAP-1”.

As for “Siglec-10-Ig-chimera: Siglec-10 fused to an Ig Fc-tail, counter-receptor for VAP-1”, the “Interaction of Siglec-10-Ig-chimera with purified VAP-1 (ELISA)” value in test [2] is reported as “interacts with VAP-1”. The entries for the “Inhibition of SSAO activity of VAP-1” value in test [3] (10 μg/ml (~7 nM)) and in test [3] (70 μg/ml (~50 nM)) were 20% and 30%, respectively. Moreover, in test [4], the “Cells positive for anti-VAP-1 antibody staining” value amounted to 43.7%.

(Values after patent US8138151B2, “Peptides” (Faron Ventures Oy, priority 2006, dated 2012).)
